Source: paper doi:10.1101/806364

How the values were obtained:
Experiment in all cases: selective 80S ribosome footprinting
[1] = biological target: eIF3B (human (endogenous in HeLa)) (UniProt P55884)
[2] = biological target: eIF4E (human (endogenous in HeLa)) (UniProt P06730)
[3] = biological target: eIF4G1 (human (endogenous in HeLa)) (UniProt Q04637)

Measured: decay half-length of the factor on elongating 80S ribosomes

Sequence of UniProt P06730 (P06730 whole entry): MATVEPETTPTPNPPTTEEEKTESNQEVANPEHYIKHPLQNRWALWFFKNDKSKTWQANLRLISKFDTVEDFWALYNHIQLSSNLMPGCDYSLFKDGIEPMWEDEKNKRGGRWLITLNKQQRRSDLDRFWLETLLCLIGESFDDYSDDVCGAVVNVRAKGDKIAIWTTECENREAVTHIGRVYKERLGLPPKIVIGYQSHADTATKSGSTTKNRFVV
Sequence of UniProt Q04637 (Q04637 whole entry): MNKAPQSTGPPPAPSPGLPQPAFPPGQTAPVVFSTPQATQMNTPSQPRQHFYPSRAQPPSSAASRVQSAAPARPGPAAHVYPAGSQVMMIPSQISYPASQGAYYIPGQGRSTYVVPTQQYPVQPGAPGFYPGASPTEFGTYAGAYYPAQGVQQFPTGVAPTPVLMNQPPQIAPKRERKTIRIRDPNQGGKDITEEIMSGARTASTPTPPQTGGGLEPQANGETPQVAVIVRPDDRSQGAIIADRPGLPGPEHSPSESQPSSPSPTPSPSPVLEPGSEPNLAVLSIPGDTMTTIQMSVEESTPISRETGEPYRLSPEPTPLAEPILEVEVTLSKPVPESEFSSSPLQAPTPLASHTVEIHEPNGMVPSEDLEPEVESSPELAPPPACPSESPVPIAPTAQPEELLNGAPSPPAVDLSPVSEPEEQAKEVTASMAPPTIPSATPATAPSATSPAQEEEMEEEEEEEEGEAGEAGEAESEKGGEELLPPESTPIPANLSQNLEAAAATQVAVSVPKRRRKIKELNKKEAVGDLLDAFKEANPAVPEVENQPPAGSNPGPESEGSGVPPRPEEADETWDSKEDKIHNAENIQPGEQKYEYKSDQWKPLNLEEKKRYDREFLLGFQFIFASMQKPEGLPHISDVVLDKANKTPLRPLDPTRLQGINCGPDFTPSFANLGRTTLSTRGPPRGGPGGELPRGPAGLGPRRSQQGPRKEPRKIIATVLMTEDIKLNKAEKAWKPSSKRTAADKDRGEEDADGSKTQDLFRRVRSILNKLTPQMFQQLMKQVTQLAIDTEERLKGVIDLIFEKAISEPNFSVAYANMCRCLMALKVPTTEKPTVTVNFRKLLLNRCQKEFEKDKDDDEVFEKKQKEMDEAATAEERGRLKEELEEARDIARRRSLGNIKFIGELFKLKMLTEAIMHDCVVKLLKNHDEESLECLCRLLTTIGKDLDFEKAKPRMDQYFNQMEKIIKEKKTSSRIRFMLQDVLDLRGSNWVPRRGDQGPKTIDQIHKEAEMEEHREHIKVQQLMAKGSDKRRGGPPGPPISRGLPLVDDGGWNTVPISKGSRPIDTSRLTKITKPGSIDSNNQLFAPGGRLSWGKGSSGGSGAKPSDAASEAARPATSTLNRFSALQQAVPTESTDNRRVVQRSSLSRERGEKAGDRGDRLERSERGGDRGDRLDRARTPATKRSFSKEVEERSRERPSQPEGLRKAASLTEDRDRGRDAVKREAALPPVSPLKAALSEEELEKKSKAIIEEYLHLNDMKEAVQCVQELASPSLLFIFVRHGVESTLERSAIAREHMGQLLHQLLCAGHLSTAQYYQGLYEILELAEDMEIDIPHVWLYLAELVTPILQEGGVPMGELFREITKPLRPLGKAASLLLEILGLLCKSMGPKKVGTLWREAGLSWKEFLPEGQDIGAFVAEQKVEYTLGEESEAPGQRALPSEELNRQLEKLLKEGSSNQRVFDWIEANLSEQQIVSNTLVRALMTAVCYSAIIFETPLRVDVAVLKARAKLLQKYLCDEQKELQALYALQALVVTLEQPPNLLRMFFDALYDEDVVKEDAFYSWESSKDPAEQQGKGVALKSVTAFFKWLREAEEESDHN
Sequence of UniProt P55884 (P55884 whole entry): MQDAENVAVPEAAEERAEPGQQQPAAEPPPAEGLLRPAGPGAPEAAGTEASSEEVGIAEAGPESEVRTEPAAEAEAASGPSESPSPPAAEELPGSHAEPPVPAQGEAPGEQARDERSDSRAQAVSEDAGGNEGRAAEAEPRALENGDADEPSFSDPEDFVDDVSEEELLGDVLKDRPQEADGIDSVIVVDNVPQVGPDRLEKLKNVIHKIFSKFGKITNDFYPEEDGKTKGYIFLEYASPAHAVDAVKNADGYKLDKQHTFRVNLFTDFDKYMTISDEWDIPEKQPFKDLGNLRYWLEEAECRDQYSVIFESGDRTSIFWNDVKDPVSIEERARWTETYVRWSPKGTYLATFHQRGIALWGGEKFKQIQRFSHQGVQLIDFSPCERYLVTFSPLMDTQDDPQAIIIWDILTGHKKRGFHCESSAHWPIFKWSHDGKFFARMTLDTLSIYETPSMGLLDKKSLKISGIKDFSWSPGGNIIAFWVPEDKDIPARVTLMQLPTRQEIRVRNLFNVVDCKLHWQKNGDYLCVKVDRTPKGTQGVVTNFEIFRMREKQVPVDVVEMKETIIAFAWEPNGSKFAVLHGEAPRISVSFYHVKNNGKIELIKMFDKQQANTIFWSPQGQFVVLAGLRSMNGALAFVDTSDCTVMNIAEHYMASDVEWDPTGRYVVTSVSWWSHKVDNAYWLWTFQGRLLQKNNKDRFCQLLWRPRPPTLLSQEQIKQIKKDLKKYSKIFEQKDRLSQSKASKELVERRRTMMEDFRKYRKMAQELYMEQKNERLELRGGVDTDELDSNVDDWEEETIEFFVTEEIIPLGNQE

80S ribosome (complex)
36 nucleotides: [1] | [2] | [3]
